Data: patent US12723105 (BEIJING STARMAB BIOMED TECHNOLOGY, dated 2026)
Blank lines part the entries; values can stand above or below the binder they belong to.

Experiments:
[1] = molecular target: T1, Human CD16A (human, UniProt P08637 17-208, limits assumed); assay: BLI (Octet) as in Example 1, His-tagged VHH, human CD16A
T1 construct: also called FcγRIIIa

[2] = molecular target: T2, Human serum albumin (human, UniProt P02768 25-609); assay: BLI (Octet) as in Example 1, His-tagged VHH, HSA
T2 construct: also called HSA

[3] = molecular target: T3, CD47 natively expressed on tumor cell surface (Jurkat, HL60 cells) (human, UniProt Q08722 19-323); assay: flow cytometry on HL60 cells (express CD47 but not PD-L1)
T3 construct: whole, on cells; also called CD47 on the HL60 cell surface; CD47 on the Jurkat cell surface

T1 sequence (P08637 17-208 limits assumed): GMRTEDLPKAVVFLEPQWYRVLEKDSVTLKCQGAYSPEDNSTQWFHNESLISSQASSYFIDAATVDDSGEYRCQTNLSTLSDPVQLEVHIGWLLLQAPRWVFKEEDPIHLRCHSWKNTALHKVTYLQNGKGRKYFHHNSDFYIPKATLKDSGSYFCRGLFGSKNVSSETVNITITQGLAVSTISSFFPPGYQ

Kd [2]: 0.946 nM
koff [2]: 0.000765 s⁻¹
kon [2]: 809000 M⁻¹ s⁻¹
B2: HS5 (VHH)
VHH: EVQLVESGGGLVQAGGSLRLSCAASGRTFTTHAMGWFRQAPGKEREFVATINWGGRTTYYADSVKGRFIISRDTGANTVYLQMNSLKPEDTAVYYCASNLDTYNVRAGTTNSWGQGTQVTVSS
notes: not shown: C-terminal His-tag

Kd [2]: 0.568 nM
koff [2]: 0.000583 s⁻¹
kon [2]: 1.03e+06 M⁻¹ s⁻¹
B3: HS12 (VHH)
VHH: QVQLVESGGGSVQAGGSLRLSCAASGRTFISFSMGWFRQAPGKEREFVASITNSGSGILYGDSVKGRFTISRDNAKNTMYLQMNSLKPEDTAVYYCAAGTGAGRYRYASMFDYWGQGTQVTVSS
notes: not shown: C-terminal His-tag

Kd [2]: 0.498 nM
koff [2]: 0.000829 s⁻¹
kon [2]: 1.67e+06 M⁻¹ s⁻¹
B4: HS6 (VHH)
VHH: EVQLVESGGGLVQAGGSLRLSCAASGRIFHTYAVGWFRQAPGKERESVVIINWSSDHTYVAQSVKGRFTISRDRAKNTFYLQMNSLKPEDTAVYYCAVRRRLYGLRESDFDSWGQGTQVTVSS
notes: not shown: C-terminal His-tag

EC50 [3]: 8.4 nM
B6: 1518-HS5-GS15 (bispecific antibody)
chain: EVQLVESGGGLVQPGGSLRLSCAVSGSLFSARVMGWYRQAPGKQRELVAAITSGVRTDYADSVKGRFTISRDNAKRAVYLQMNSLKPEDTAVYYCNVNLYNTGNYWGQGTQVTVSSGGGGSGGGSEVQLLESGGGLVQPGGSLRLSCAASGRTFTTHAMGWFRQAPGKEREFVSAINWGGRTTYYADSVKGRFIISRDTGANTLYLQMNSLRAEDTAVYYCASNLDTYNVRAGTTNSWGQGTQVTVSSGGGGSGGGGSGGGGSEVQLVESGGGLVQPGGSLRLSCAASGGGRTFSNYALGWFRQAPGKEREFVAAISRSGGNINYADSVKGRFTISRDNFKNTVYLQMSSLRAEDTAVYYCAAHYLLLPSYISTSTNMYNYWGQGTQVTVSSAAAQVQLVESGGGLVQPGGSLRLSCAASGGGRTFSNYALGWFRQAPGKEREFVAAISRSGGNINYADSVKGRFTISRDNAKNTVYLQMSSLRAEDTAVYYCAAHYLLLPSYISTSTNMYNYWGQGTQVTVSSGGGGSGGGSEVQLVESGGGLVQPGGSLRLSCAASGGTFLTYSMSWVRQAPGKEREFVSSINWSGYMTYYADSVKGRFTISRDNSKNTLYLQMNSLRAEDTAVYYCAAARTAIAAKRSSEFDYWGQGTQVTVSSAAAEVQLVESGGGLVQPGGSLRLSCAASGGTFLTYSMSWVRQAPGKEREFVSSINWSGYMTYYADSVKGRFTISRDNSKNTLYLQMNSLRAEDTAVYYCAAARTAIAAKRSSEFDYWGQGTQVTVSS
notes: Multi-specific single chain antibody with the 15-residue linker (G4S)3 between the anti-HSA and anti-CD47 domains

Second part, the binder before the results:

B1: CD16F1 (VHH)
VHH: EVQLVESGGGLVQPGGSLRLSCAVSGSLFSARVMGWYRQAPGKQRELVAAITSGVRTDYADSVKGRFTISRDNAKRAVYLQMNSLKPEDTAVYYCNVNLYNTGNYWGQGTQVTVSS
notes: not shown: C-terminal His-tag
Kd [1]: 4.68 nM
koff [1]: 0.000109 s⁻¹
kon [1]: 23300 M⁻¹ s⁻¹

B5: CD16E11 (VHH)
VHH: QVQLVESGGGLVQPGGSLTLSCRASGFTFSNHAMSWVRQAPGKGLEWVSEISFNGHATRYADSLKGRFTISRDNAKNTLYLQMNTLKPEDTAVYYCRKGWNATPQIGERGRGTQVTVSS
notes: not shown: C-terminal His-tag
Kd [1]: 3.02 nM
koff [1]: 6e-05 s⁻¹
kon [1]: 19900 M⁻¹ s⁻¹

B7: HS10 (VHH)
VHH: EVQLVESGGGLVQPGGSLRLSCAASGSTDSAYRMGWFRQAPGKEREFVSAINWSDGRTYYADSVKGRFTISRDNSKNTLYLQMNSLRAEDTAVYYCAADPDSRLYYTVPQNYDYWGQGTLVTVSS
notes: not shown: C-terminal His-tag
Kd [2]: 2.89 nM
koff [2]: 8.01e-05 s⁻¹
kon [2]: 27700 M⁻¹ s⁻¹
